± gives the uncertainty stated by the source.
Test: self-splicing fitness, log relative to wild type (ln ratio); higher = more splicing; Tetrahymena group I intron in knt gene, E. coli kanamycin selection, DiMSum; sequences stand for … in CUCUCU…GGAGGGAAAAGUUAUCAGGCAUGCACCUGGUAGCUAGUCUUUAAACCAAUAGAUUGCAUCGGUUUAAAAGGCAAGACCGUCAAAUUGCGGGAAAGGGGUCAACAGCCGUUCAGUACCAAGUCUCAGGGGAAACUUUGAGAUGGCCUUGCAAAGGGUAUGGUAAUAAGCUGACGGACAUGGUCCUAACCACGCAGCCAAGUCCUAAGUCAACAGAUCUUCUGUUGAUAUGGAUGCAGUUCACAGACUAAAUGUCGGUCGGGGAAGAUGUAUUCUUCUCAUAAGAUAUAGUCGGACCUCUCCUUAAUGGGAGCUAGCGGAUGAAGUGAUGCAACACUGGAGCCGCUGGGAACUAAUUUGUAUGCGAAAGUAUAUUGAUUAGUUUUGGAGUACUCGUGGUCG
Summary of the method: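 Library with all eight P1ex-region intron nucleotides randomised, intron inside the knt kanamycin-resistance gene on pET-22b(+), in E. coli BL21(DE3). Cells grew overnight at 37°C or 30°C on LB agar with or without 25 μg/mL kanamycin (plus 100 μg/mL carbenicillin, 50 μM IPTG, 0.2% rhamnose), in six replicate transformations. Pooled colonies were amplicon-sequenced on Illumina HiSeq 2500. DiMSum fitness is the error-weighted combination of wild-type-normalised replicate fold changes, kanamycin versus none.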

| Sequence | self-splicing fitness (ln) (30 °C) | self-splicing fitness (ln) (37 °C) |
| --- | --- | --- |
| CUAUAGCAAUAUUACGCGGG | -3.11 ± 0.28 | -2.88 ± 0.31 |
| CUAUAGCAAUAUUACGCUAA | -1.65 ± 0.2 | -2.41 ± 0.32 |
| CUAUAGCAAUAUUACGCUCU | -3.4 ± 0.29 | -2.3 ± 0.34 |
| CUAUAGCAAUAUUACGCUGU | -3.72 ± 0.26 | -1.29 ± 0.22 |
| CUAUAGCAAUAUUACGGAGU | -4.03 ± 0.28 | -2.86 ± 0.26 |
| CUAUAGCAAUAUUACGGCAC | -2.18 ± 0.24 | -1.09 ± 0.42 |
| CUAUAGCAAUAUUACGGCCA |  | -3.35 ± 0.43 |
| CUAUAGCAAUAUUACGGCUA | -2.95 ± 0.28 | -3.42 ± 0.47 |
| CUAUAGCAAUAUUACGGGAC | -2.51 ± 0.3 |  |
| CUAUAGCAAUAUUACGGGAG | -2.58 ± 0.27 | -1.87 ± 0.28 |
| CUAUAGCAAUAUUACGGUAA | -3.01 ± 0.23 | -1.69 ± 0.18 |
| CUAUAGCAAUAUUACGGUAU | -4.43 ± 0.36 | -3.22 ± 0.27 |
| CUAUAGCAAUAUUACGGUUG | -0.804 ± 0.088 | 0.0411 ± 0.1 |
| CUAUAGCAAUAUUACGGUUU | -3.72 ± 0.12 | -2.58 ± 0.17 |
| CUAUAGCAAUAUUACGUGGA | -2.83 ± 0.19 | -2.4 ± 0.27 |
| CUAUAGCAAUAUUACGUUAC | -3.45 ± 0.25 | -2.14 ± 0.33 |
| CUAUAGCAAUAUUACGUUGG | -3.71 ± 0.16 | -2.79 ± 0.17 |
| CUCAAGCAAUAUUACGAAGU | -3.75 ± 0.2 | -2.36 ± 0.21 |
| CUCAAGCAAUAUUACGACGU | -2.18 ± 0.098 | -1.54 ± 0.11 |
| CUCAAGCAAUAUUACGAGAC | -3.27 ± 0.21 | -2.35 ± 0.23 |
| CUCAAGCAAUAUUACGAGCG | -3 ± 0.15 | -1.31 ± 0.12 |
| CUCAAGCAAUAUUACGAGGG |  | -2.8 ± 0.43 |
| CUCAAGCAAUAUUACGAUAC | -1.63 ± 0.18 |  |
| CUCAAGCAAUAUUACGAUUA | -3.59 ± 0.47 | -2.37 ± 0.23 |
| CUCAAGCAAUAUUACGCACU | -3.2 ± 0.24 | -2.08 ± 0.28 |
| CUCAAGCAAUAUUACGCUAC | -4.12 ± 0.29 | -2.23 ± 0.24 |
| CUCAAGCAAUAUUACGCUUU | -4.09 ± 0.37 | -3.52 ± 0.31 |

| Sequence | self-splicing fitness (ln) (30 °C) | self-splicing fitness (ln) (37 °C) |
| --- | --- | --- |
| CUCAAGCAAUAUUACGGAAA | -3.21 ± 0.28 | -2.6 ± 0.25 |
| CUCAAGCAAUAUUACGGCAU | -2.66 ± 0.18 | -1.58 ± 0.24 |
| CUCAAGCAAUAUUACGGGUG | -1.43 ± 0.059 | -1.2 ± 0.073 |
| CUCAAGCAAUAUUACGGUGA | -2.9 ± 0.12 | -1.29 ± 0.12 |
| CUCAAGCAAUAUUACGGUUC | -3.65 ± 0.17 | -2.74 ± 0.16 |
| CUCAAGCAAUAUUACGUGGU | -3.18 ± 0.12 | -2.09 ± 0.12 |
| CUCCAGCAAUAUUACGACCU | -3.4 ± 0.32 |  |
| CUCCAGCAAUAUUACGAGGA | -2.35 ± 0.11 | -2.99 ± 0.18 |
| CUCCAGCAAUAUUACGCCAU | -3.28 ± 0.31 | -2.34 ± 0.25 |
| CUCCAGCAAUAUUACGCGAC | -3.79 ± 0.2 | -2.31 ± 0.18 |
| CUCCAGCAAUAUUACGCGAG | -2.19 ± 0.2 | -2.94 ± 0.3 |
| CUCCAGCAAUAUUACGCGCG | -3.29 ± 0.17 | -0.928 ± 0.15 |
| CUCCAGCAAUAUUACGCUAC | -4.08 ± 0.29 | -2.75 ± 0.23 |
| CUCCAGCAAUAUUACGCUUG | -3.52 ± 0.19 | -2.96 ± 0.21 |
| CUCCAGCAAUAUUACGGGAG | -3.68 ± 0.15 | -1.91 ± 0.16 |
| CUCCAGCAAUAUUACGGUAG | -3.88 ± 0.19 | -3.24 ± 0.27 |
| CUCCAGCAAUAUUACGGUCC | -3.11 ± 0.17 | -2.83 ± 0.38 |
| CUCCAGCAAUAUUACGUACU | -3.3 ± 0.29 | -3.21 ± 0.28 |
| CUCCAGCAAUAUUACGUCAG | -1.2 ± 0.067 | -0.906 ± 0.098 |
| CUCCAGCAAUAUUACGUCUU | -4.45 ± 0.28 | -2.88 ± 0.16 |
| CUCCAGCAAUAUUACGUGAU | -2.1 ± 0.078 | -1.59 ± 0.1 |
| CUCCAGCAAUAUUACGUUAA | -3.9 ± 0.25 | -2.68 ± 0.36 |
| CUCCAGCAAUAUUACGUUUA | -3.31 ± 0.27 | -2.27 ± 0.18 |
| CUCGAGCAAUAUUACGACGG | -1.94 ± 0.15 | -0.385 ± 0.18 |
| CUCGAGCAAUAUUACGAUGA | -2.19 ± 0.19 | -1.36 ± 0.2 |
| CUCGAGCAAUAUUACGCCUG | -3.03 ± 0.24 | -2.58 ± 0.49 |
| CUCGAGCAAUAUUACGCGGG | -3.9 ± 0.39 |  |

| Sequence | self-splicing fitness (ln) (30 °C) | self-splicing fitness (ln) (37 °C) |
| --- | --- | --- |
| CUCGAGCAAUAUUACGCGUC |  | -2.79 ± 0.32 |
| CUCGAGCAAUAUUACGCUUA | -2.27 ± 0.47 | -2.22 ± 0.34 |
| CUCGAGCAAUAUUACGGAGA | -2.57 ± 0.36 | -1.72 ± 0.28 |
| CUCGAGCAAUAUUACGGAUA | -2.79 ± 0.28 | -3.68 ± 0.46 |
| CUCGAGCAAUAUUACGGCUU | -2.57 ± 0.47 |  |
| CUCGAGCAAUAUUACGGGUG | -2.04 ± 0.077 | -1.88 ± 0.095 |
| CUCGAGCAAUAUUACGGUUA | -2.71 ± 0.16 | -1.58 ± 0.13 |
| CUCGAGCAAUAUUACGUAUU | -3.51 ± 0.15 | -1.96 ± 0.14 |
| CUCGAGCAAUAUUACGUGAC | -2.55 ± 0.17 | -1.73 ± 0.16 |
| CUCGAGCAAUAUUACGUGCA | -2.2 ± 0.17 | -1.01 ± 0.17 |
| CUCGAGCAAUAUUACGUGCU | -2.36 ± 0.24 |  |
| CUCGAGCAAUAUUACGUGGC |  | -0.934 ± 0.32 |
| CUCGAGCAAUAUUACGUGUC |  | -2.76 ± 0.27 |
| CUCGAGCAAUAUUACGUUCC | -3.4 ± 0.19 | -2.63 ± 0.27 |
| CUCGAGCAAUAUUACGUUCU | -3.52 ± 0.17 | -2.8 ± 0.18 |
| CUCGAGCAAUAUUACGUUGA | -3.86 ± 0.28 | -2.63 ± 0.38 |
| CUCGAGCAAUAUUACGUUGG | -3.48 ± 0.18 | -3.17 ± 0.14 |
| CUCUAGCAAUAUUACGAACA |  | -2.98 ± 0.34 |
| CUCUAGCAAUAUUACGAGGC | -3.18 ± 0.36 |  |
| CUCUAGCAAUAUUACGAGGU | -3.21 ± 0.26 | -3.6 ± 0.29 |
| CUCUAGCAAUAUUACGCCGC |  | -3.15 ± 0.43 |
| CUCUAGCAAUAUUACGCGGC | -2.81 ± 0.3 | -2.45 ± 0.3 |
| CUCUAGCAAUAUUACGGACA | -2.52 ± 0.47 | -2.66 ± 0.4 |
| CUCUAGCAAUAUUACGGACG | -0.959 ± 0.14 | -0.0675 ± 0.16 |
| CUCUAGCAAUAUUACGGCAU | -4.62 ± 0.39 | -3.62 ± 0.42 |
| CUCUAGCAAUAUUACGGGAU | -2.37 ± 0.11 | -3.45 ± 0.16 |

From the supplement of paper PMC7877785
